Test results reported in patent publication US20150283263A1 (ADC THERAPEUTICS S A, published 2015).

Assays:
[1] = target: T1, CD25 (human, UniProt P01589 22-272); test: flow cytometry on SU-DHL-1 cells (surface CD25), average of four experiments
T1 construct: whole, on cells; Endogenous CD25 on cell lines; also called surface CD25 on Karpas299 and SU-DHL-1 cells
T1 sequence (looked up): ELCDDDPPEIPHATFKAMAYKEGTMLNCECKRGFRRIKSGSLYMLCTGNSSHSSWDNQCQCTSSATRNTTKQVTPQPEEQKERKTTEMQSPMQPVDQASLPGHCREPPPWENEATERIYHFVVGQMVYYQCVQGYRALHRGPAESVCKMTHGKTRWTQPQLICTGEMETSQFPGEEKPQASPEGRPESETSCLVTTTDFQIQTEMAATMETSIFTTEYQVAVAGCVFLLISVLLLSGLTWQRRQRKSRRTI
Protocol: (§1) Karpas299 and SU-DHL-1 anaplastic large cell lymphoma (ALCL)-derived cell lines have been previously reported to express CD25 (2,3). To confirm their expression profile, CD25 surface expression was analyzed by flow cytometry.
(§2) Surface CD25 expression on Karpas and SU-DHL-1 was determined by flow cytometry. Graphs represent the average of three (Karpas299) or four independent experiments (SU-DHL-1). EC₅₀ values are reported in ng/ml.

[2] = target: T1, CD25; test: flow cytometry on Karpas299 cells (surface CD25), average of three experiments
Protocol: as §1, §2

EC50 [1]: 0.0341 µg/mL
EC50 [2]: 0.0202 µg/mL
B1: HuMax-TAC (antibody, IgG1, V domains shown)
VH: QVQLVQSGAEVKKPGSSVKVSCKASGGTFSRYIINWVRQAPGQGLEWMGRIIPILGVENYAQKFQGRVTITADKSTSTAYMELSSLRSEDTAVYYCARKDWFDYWGQGTLVTVSS
VL: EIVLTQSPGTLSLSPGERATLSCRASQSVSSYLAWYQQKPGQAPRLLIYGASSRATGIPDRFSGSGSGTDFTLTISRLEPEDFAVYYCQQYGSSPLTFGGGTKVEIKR
notes: also called AB12; Antibody AB12
